Laboratory results from patent publication US20110262446A1 (published 2011).

B1: M0072-G06 Fab (Fab, V domains shown)
VH: EVQLLESGGGLVQPGGSLRLSCAASGFTFSEYVMWWVRQAPGKGLEWVSVISPSGGYTVYADSVKGRFTISRDNSKNTLYLQMNSLRAEDTAVYYCARDRGGATTLDYWGQGTLVTVSS
VL: DIQMTQSPSTLSASVGDRVTITCRASQTISSWLAWYQQKPGKAPKLMIYKAASLGSEVPSRFSGSGSGTEFTLTISSLQPEDFSTYYCQQYKTYPVTFGQGTRLEIKR
notes: Soluble Fab from phage display; also called M0072-G06(R0032-C05)
B2: M0072-E03 Fab (Fab, V domains shown)
VH: EVQLLESGGGLVQPGGSLRLSCAASGFTFSEYEMSWVRQAPGKGLEWVSSIYSSGGWTKYTDSVKGRFTISRDNSKNTLYLQMNSLRAEDTAVYYCAKGVHYDSSGLPIDWYFDLWGRGTLVTVSS
VL: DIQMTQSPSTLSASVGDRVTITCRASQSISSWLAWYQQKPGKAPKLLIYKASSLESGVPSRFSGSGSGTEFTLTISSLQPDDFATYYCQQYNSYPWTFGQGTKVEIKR
notes: Soluble Fab from phage display; also called M0072-E03(R0032-C03)
B3: M0070-H08 IgG (antibody, V domains shown)
VH: EVQLLESGGGLVQPGGSLRLSCAASGFTFSRYWMIWVRQAPGKGLEWVSSIRSSGETKYADSVKGRFTISRDNSKNTLYLQMNSLRAEDTAVYYCARGPLSDYYDSSGYYFDAFDIWGQGTMVTVSS
VL: DIQMTQSPSSLSASAGDRVTITCRASQSISSYLNWYQQKPGKAPNLLIYTTSNLQGGVPSRFSGSGSGTDFTLTISSLQPEDFATYYCQQGYSFPLTFGGGTKVEIK
B4: M0072-C06 IgG (antibody, V domains shown)
VH: EVQLLESGGGLVQPGGSLRLSCAASGFTFSAYIMTWVRQAPGKGLEWVSSISPSGGYTVYADSVKGRFTISRDNSKNTLYLQMNSLRAEDTAVYYCARDSGFGDPFDYWGQGTMVTVSS
VL: DIQMTQSPSSLSASVGDRVTITCRASQSIRNYLNWYQQKPGKAPKLLIYAASKLEDGVPSRFSGSGTGTDFTLTIRSLQPEDFASYFCQQSYSSPGITFGPGTKVEIK
B5: M0072-E03 IgG (antibody, V domains shown)
VH: B2 VH
VL: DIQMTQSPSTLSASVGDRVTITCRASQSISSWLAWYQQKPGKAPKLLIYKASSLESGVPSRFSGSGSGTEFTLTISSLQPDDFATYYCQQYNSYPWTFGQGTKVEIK
B6: M0072-G06 IgG (antibody, V domains shown)
VH: B1 VH
VL: DIQMTQSPSTLSASVGDRVTITCRASQTISSWLAWYQQKPGKAPKLMIYKAASLGSEVPSRFSGSGSGTEFTLTISSLQPEDFSTYYCQQYKTYPVTFGQGTRLEIK
B7: M0070-H08 Fab (Fab, V domains shown)
VH: B3 VH
VL: DIQMTQSPSSLSASAGDRVTITCRASQSISSYLNWYQQKPGKAPNLLIYTTSNLQGGVPSRFSGSGSGTDFTLTISSLQPEDFATYYCQQGYSFPLTFGGGTKVEIKR
notes: Soluble Fab from phage display; also called M0070-H08(R0032-A07)

What was measured:
[1] = molecular target: T1, IGF-II (amino acids 1-67) (human, UniProt P01344 25-91); assay: cell-based or functional assay
T1 sequence (P01344 25-91): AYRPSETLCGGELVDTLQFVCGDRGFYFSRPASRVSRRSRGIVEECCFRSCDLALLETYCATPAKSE

[2] = molecular target: T1, IGF-II (amino acids 1-67); assay: SPR (Flexchip), Fab, first of duplicate; unit inferred
[3] = molecular target: T1, IGF-II (amino acids 1-67); assay: SPR (Flexchip), Fab, second of duplicate; unit inferred
[4] = molecular target: T1, IGF-II (amino acids 1-67); assay: competition SPR (Biacore T100), affinity in solution: Fab pre-incubated with ligand, free ligand read on immobilized huIR-A ECD; measurement #1; head prints 'KD nM'
Experimental: Competition SPR (BIACORE®) was performed under conditions of partially mass-transport limited conditions according to previously described methodology (Nieba et al., 1996). Approximately 16,700 relative response units (RU) of huIR-A (-exon11) ectodomain was coupled by standard amine chemistry to a BIACORE® CM5 chip sensor. Uncoated flow-cell surface was used as a reference. […] Regeneration of the surface was achieved by injection of 30 ul NaCltrate/NaCl pH 4.5. […] These Req estimates were subsequently plotted against total concentrations of Fab used and the resulting inhibition curve was utilised to calculate dissociation constant (KD).

[5] = molecular target: IGF-I (UniProt P05019 49-118); assay: cell-based or functional assay
Sequence of IGF-I (P05019 49-118 limits assumed): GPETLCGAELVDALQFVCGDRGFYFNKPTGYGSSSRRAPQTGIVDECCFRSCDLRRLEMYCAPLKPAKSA

[6] = molecular target: T1, IGF-II (amino acids 1-67); assay: SPR (Biacore T100): IgG captured on Protein G', ligand bound, then BP injected; competitor BP2
Experimental: (§1) BIACORE® T100 and a CM5 chip coated with Protein G were utilised to set up following assay. Approximately 1000 RU of Protein G′ was immobilized on a CM5 chip using standard amine chemistry immobilization method. Entire assay consisted of three sequential injection of following four reagents 1) Candidate IgG was injected onto Protein G′ at 10 ug/ml at 5 ul/min for 180 sec.

[7] = molecular target: T1, IGF-II (amino acids 1-67); assay: SPR (Biacore T100): IgG captured on Protein G', ligand bound, then BP injected; competitor BP4
Experimental: as §1

Row | Binder | IC50, IGF-II stimulated BA/F3 cell proliferation (MTS) [1] [µg/mL] | Kd [2] [nM] | Kd [3] [nM] | Kd [4] [nM] | decrease in IGF-I stimulated cell proliferation, sFab at 50 µg/ml [5] [%] | competition score (0 = does not compete significantly, 5 = competes strongly) [6] [score 0-5] | competition score (0 = does not compete significantly, 5 = competes strongly) [7] [score 0-5]
1 | B1 | 8.7 | 0.58 | 1.4 | 3.99 |  |  | 
2 | B2 |  | 0.75 | 0.3 | 2.62 | ~30 |  | 
3 | B3 |  |  |  |  |  | 3 | 2
4 | B4 |  |  |  |  |  | 3 | 2
5 | B5 |  |  |  |  |  | 4 | 4
6 | B6 |  |  |  |  |  | 2 | 1
7 | B7 |  | 3.3 | 1.1 | 3.24 |  |  | 
